{
  "source": "paper PMC5757174",
  "about": "“Biophysical characterization of Atg11, a scaffold protein essential for selective autophagy in yeast” (FEBS Open Bio, 2017)",
  "proteins": {"B1": {"name": "N-terminal region of Atg11 (residues 1-646) (protein)", "chain": "MADADEYSTAPTQQEITPLQTTATIINAISGECITTNVDFFVSLDKFKQFIARKWKIPPDQLLILLPYGNKLKPSMFKELLINRSFTLNDFYVYDRRLFSLVSKPTPTNLLTSKDSNPMNSPNSNDLTETLEYLIKNSHISQYQGSDTIMIKPMPSPLEDADVDLSRLNYHSVTSLLTTNLGWLSALEIDVHYFKSLIPDIIAHIKRIFDGLTVCSQYLKLYCFDVESLYNSNVQFLNQLVDNGMTSKWEKCFNDTLSKLTALEGDSLQKFINIESLLENEKSVKILNHSINGKLNKIKREIDENASFRDIITVNIDRLRQMFTPNESKFELEDQMAESFEVLVSEMRTRSRNVLDKEEEEFNSQEFLKSMNVMLEKDKKESVKTLFTISQALYSQIGELIDLKKSLQKHAVAILGNIAFTQMEILGIKRLLLNECNKDLELYKKYEVEFAQVEDLPLIYGLYLIEKYRRLSWFQQILSFISNFNQDLELFKQNELRTRNKWVKNFGSIATVFCEDLLSSSDFKRLNEYHSHTSPPNEDEEDENENSIANYRQDLVKVSQAIDNYMTQIKETDVSEPIIDLLSKTLFETKRFHIIYSNFKNNNNNSSNGNSISPEGSIALKSDDVVKGYKTRIKKLESLLHEFQYS"}, "B2": {"name": "full-length S. cerevisiae Atg11 (residues 1-1178) (natural protein, UniProt Q12527 1-1178, looked up)", "chain": "MADADEYSTAPTQQEITPLQTTATIINAISGECITTNVDFFVSLDKFKQFIARKWKIPPDQLLILLPYGNKLKPSMFKELLINRSFTLNDFYVYDRRLFSLVSKPTPTNLLTSKDSNPMNSPNSNDLTETLEYLIKNSHISQYQGSDTIMIKPMPSPLEDADVDLSRLNYHSVTSLLTTNLGWLSALEIDVHYFKSLIPDIIAHIKRIFDGLTVCSQYLKLYCFDVESLYNSNVQFLNQLVDNGMTSKWEKCFNDTLSKLTALEGDSLQKFINIESLLENEKSVKILNHSINGKLNKIKREIDENASFRDIITVNIDRLRQMFTPNESKFELEDQMAESFEVLVSEMRTRSRNVLDKEEEEFNSQEFLKSMNVMLEKDKKESVKTLFTISQALYSQIGELIDLKKSLQKHAVAILGNIAFTQMEILGIKRLLLNECNKDLELYKKYEVEFAQVEDLPLIYGLYLIEKYRRLSWFQQILSFISNFNQDLELFKQNELRTRNKWVKNFGSIATVFCEDLLSSSDFKRLNEYHSHTSPPNEDEEDENENSIANYRQDLVKVSQAIDNYMTQIKETDVSEPIIDLLSKTLFETKRFHIIYSNFKNNNNNSSNGNSISPEGSIALKSDDVVKGYKTRIKKLESLLHEFQYSDIGHWPQGVLNTHLKPFRGSATSINKKKFLGASVLLEPANISEVNIDSVSQANNHQIQELESNVDDLLHQLQLLKEENNRKSMQISEMGKKISDLEVEKTAYRETLTNLNQELARLTNEEQSHRTEIFTLNASFKKQLNDIISQDNEKIEKLTGDYDDVSKSRERLQMDLDESNKKHEQEVNLLKADIERLGKQIVTSEKSYAETNSSSMEKGEKFETIPLAEDPGRENQISAYTQTLQDRIFDIISTNIFILENIGLLLTFDNNNNIQIRRVKGLKKGTAQSNILDESTQMLDAHDNSLIKSPVFQKLKDEYELIKSVANGSEKDTQQSIFLGNITQLYDNKLYEVAVIRRFKDIETLAKKLTKENKIKRTLLERFQREKVTLRNFQIGDLALFLPTRENVNSVGSMSSSTSSLSSSFSSVDLSTPPPLDAMSIQSSPSVIHSNVINQASISGRDKNKLMRPWAAFTAFEESTRYFLKDEKGLTKGKEWFVGRIVTLEHFVADSPSNNPFRLPKGSVWFQVTAVVVSYQGV", "notes": "Atg11, Saccharomyces cerevisiae, residues 1-1178 (1178 amino acids, 135 kDa); C terminus carried an HRV3C protease site followed by FLAG and 6x His tags; Residues of the HRV3C site may remain at the C terminus; also called full-length Atg11; source: High Five insect cells, baculovirus expression system, purified (Talon, HiTrap Q, HRV3C cleavage, Superose6 Increase); not shown: FLAG, C-terminal, …"}, "B3": {"name": "C-terminal region of Atg11 (residues 700-1178) (domain or fragment, S. cerevisiae, UniProt Q12527 700-1178, looked up)", "chain": "NHQIQELESNVDDLLHQLQLLKEENNRKSMQISEMGKKISDLEVEKTAYRETLTNLNQELARLTNEEQSHRTEIFTLNASFKKQLNDIISQDNEKIEKLTGDYDDVSKSRERLQMDLDESNKKHEQEVNLLKADIERLGKQIVTSEKSYAETNSSSMEKGEKFETIPLAEDPGRENQISAYTQTLQDRIFDIISTNIFILENIGLLLTFDNNNNIQIRRVKGLKKGTAQSNILDESTQMLDAHDNSLIKSPVFQKLKDEYELIKSVANGSEKDTQQSIFLGNITQLYDNKLYEVAVIRRFKDIETLAKKLTKENKIKRTLLERFQREKVTLRNFQIGDLALFLPTRENVNSVGSMSSSTSSLSSSFSSVDLSTPPPLDAMSIQSSPSVIHSNVINQASISGRDKNKLMRPWAAFTAFEESTRYFLKDEKGLTKGKEWFVGRIVTLEHFVADSPSNNPFRLPKGSVWFQVTAVVVSYQGV", "notes": "Atg11, Saccharomyces cerevisiae, residues 700-1178 (55 kDa); Expressed from a modified pMAL-c2E vector as an MBP fusion with an HRV3C site; MBP was cleaved off; A few residues of the site may remain; also called Atg11_C; source: E. coli BL21(DE3), purified (Amylose, HRV3C cleavage, SP-Sepharose, Superdex 200)"}},
  "key": {"Q12527 [1]": {"target": "Q12527", "experiment": "SEC; Superdex 200 Increase 10/300 GL, 20 mM Tris pH 8.0, 150 mM NaCl; mass estimated from globular standards"}, "Q12527 [2]": {"target": "Q12527", "experiment": "SEC; Superose 6 Increase 10/300 GL, 20 mM Tris pH 8.0, 300 mM NaCl, 1 mM DTT; mass estimated from globular standards"}, "[3]": {"target": "the molecule itself", "experiment": "AUC; sedimentation velocity, 42 000 r.p.m., 20 °C; full-length Atg11 at 0.65 mg/mL in 20 mM Tris pH 8.0, 300 mM NaCl, 1 mM DTT; c(s) by SEDFIT"}, "[4]": {"target": "the molecule itself", "experiment": "AUC; sedimentation velocity, 36 000 r.p.m., 20 °C; Atg11_N at 0.61 mg/mL and Atg11_C at 0.92 mg/mL in 20 mM Tris pH 8.0, 150 mM NaCl; c(s) by SEDFIT"}},
  "note": "“And” between values parts separate entries of the source, which are not always exact repeats. Equal entries are not always repeated.",
  "data": [
    {"protein": "B1", "values": [
      {"measurement": "copies from the apparent SEC mass (globular standards)", "setting": "Q12527 [1]", "value": "6 and 7–8 copies of each protein, respectively"}
    ]},
    {"protein": "B2", "values": [
      {"measurement": "copies from the apparent SEC mass (globular standards)", "setting": "Q12527 [2]", "value": "8–9 copies of Atg11"},
      {"measurement": "stoichiometry N", "setting": "[3]", "value": 1.6, "unit": "copies"}
    ]},
    {"protein": "B3", "values": [
      {"measurement": "stoichiometry N", "setting": "[4]", "value": 2.1, "unit": "copies"},
      {"measurement": "copies from the apparent SEC mass (globular standards)", "setting": "Q12527 [1]", "value": "6 and 7–8 copies of each protein, respectively"}
    ]}
  ]
}
